Measurements taken from US20200368361A1.

What was measured:
[1] = biological target: human MSR1 endogenously expressed on PMA-differentiated THP-1 cells (human) (UniProt P21757); assay: imaging of PMA-differentiated THP-1 cells, 10 ug/mL antibody, Alexa 488 secondary
[2] = biological target: human MSR1 endogenously expressed on PMA-differentiated THP-1 cells (human) (UniProt P21757); assay: cell-based or functional assay
[3] = biological target: full length human MSR1 with a C-terminal Myc tag on HEK293.Myc.hMSR1 cells (human) (UniProt P21757); assay: ECL cell binding, HEK293.Myc.hMSR1
[4] = biological target: endogenously expressed human MSR1 on PMA-treated THP-1 cells (human) (UniProt P21757); assay: ECL cell binding, PMA-treated THP-1
[5] = biological target: full length monkey MSR1 on HEK293.mfMSR1 cells (Macaca fascicularis); assay: ECL cell binding, HEK293.mfMSR1
[6] = biological target: His9-hMSR1, human MSR1 extracellular domain with an N-terminal 9-Histidine tag (human) (UniProt P21757); assay: competition ELISA on coated His9-hMSR1; competitor Ac-LDL; antibody 100 nM
[7] = biological target: His9-hMSR1, human MSR1 extracellular domain with an N-terminal 9-Histidine tag (human) (UniProt P21757); assay: competition ELISA on coated His9-hMSR1; competitor biot-AGE-BSA; antibody 300 nM
[8] = biological target: His9-hMSR1, human MSR1 extracellular domain with an N-terminal 9-Histidine tag (human) (UniProt P21757); assay: competition ELISA on coated His9-hMSR1; competitor Ox-LDL 10 nM; antibody 1 µM

human MSR1 endogenously expressed on PMA-differentiated THP-1 cells (human), sequence (P21757 whole entry): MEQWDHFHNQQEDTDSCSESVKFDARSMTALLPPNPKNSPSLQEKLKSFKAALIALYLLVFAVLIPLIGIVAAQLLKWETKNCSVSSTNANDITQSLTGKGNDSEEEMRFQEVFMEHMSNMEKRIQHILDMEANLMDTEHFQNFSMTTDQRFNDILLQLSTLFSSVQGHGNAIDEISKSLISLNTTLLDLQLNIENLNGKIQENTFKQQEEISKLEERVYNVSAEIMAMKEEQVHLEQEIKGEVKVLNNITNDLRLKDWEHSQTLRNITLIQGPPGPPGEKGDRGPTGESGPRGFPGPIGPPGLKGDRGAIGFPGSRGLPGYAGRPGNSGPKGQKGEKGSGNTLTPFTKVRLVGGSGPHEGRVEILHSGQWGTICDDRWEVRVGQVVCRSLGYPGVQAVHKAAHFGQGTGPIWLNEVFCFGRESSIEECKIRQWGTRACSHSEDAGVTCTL
His9-hMSR1, human MSR1 extracellular domain with an N-terminal 9-Histidine tag (human), sequence (P21757 other isoform, or with tags, fused parts or gaps): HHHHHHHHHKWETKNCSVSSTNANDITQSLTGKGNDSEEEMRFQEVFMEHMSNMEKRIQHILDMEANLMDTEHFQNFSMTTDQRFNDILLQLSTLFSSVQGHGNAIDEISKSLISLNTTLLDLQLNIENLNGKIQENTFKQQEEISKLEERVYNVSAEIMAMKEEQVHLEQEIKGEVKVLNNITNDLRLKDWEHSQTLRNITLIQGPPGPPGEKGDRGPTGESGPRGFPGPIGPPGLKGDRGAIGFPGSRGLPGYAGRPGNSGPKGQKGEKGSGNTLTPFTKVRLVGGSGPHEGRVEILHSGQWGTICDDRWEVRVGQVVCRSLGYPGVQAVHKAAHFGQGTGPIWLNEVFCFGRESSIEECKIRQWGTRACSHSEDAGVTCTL
full length human MSR1 with a C-terminal Myc tag on HEK293.Myc.hMSR1 cells (human), sequence (P21757 whole entry): as the sequence (P21757 whole entry) above
endogenously expressed human MSR1 on PMA-treated THP-1 cells (human), sequence (P21757 whole entry): as above
full length monkey MSR1 on HEK293.mfMSR1 cells (Macaca fascicularis), sequence (chain, as listed by the source): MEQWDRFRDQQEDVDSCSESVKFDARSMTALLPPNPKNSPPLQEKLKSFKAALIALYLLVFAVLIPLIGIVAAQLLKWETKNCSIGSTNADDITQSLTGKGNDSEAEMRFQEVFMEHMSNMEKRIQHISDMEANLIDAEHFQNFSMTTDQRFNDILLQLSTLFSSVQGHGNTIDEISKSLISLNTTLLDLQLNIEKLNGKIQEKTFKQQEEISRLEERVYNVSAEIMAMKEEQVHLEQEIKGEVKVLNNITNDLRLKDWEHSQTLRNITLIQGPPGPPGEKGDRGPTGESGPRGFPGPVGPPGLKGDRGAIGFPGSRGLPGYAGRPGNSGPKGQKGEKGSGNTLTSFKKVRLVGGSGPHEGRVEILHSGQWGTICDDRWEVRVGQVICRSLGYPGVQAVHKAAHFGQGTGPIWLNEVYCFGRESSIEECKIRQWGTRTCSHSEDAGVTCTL

| Substance | binding signal ratio to isotype control (11 nM) [3] | binding signal ratio to isotype control (11 nM) [4] | binding signal ratio to isotype control (11 nM) [5] | % Blocking [6] | % Blocking [7] | % Blocking [8] | other results |
| --- | --- | --- | --- | --- | --- | --- | --- |
| Isotype control (internalization assay of Table 19) (antibody) |  |  |  |  |  |  | Total Binding at 4° C. [1]: 186000 RFU; Total Binding at 37° C. [1]: 1.09e+06 RFU; Total Internalized RFU [2]: 1.7e+06 RFU |
| hIgG1 Isotype Control (antibody) | 1 fold | 1 fold | 1 fold |  |  |  |  |
| hIgG1 isotype control (competition ELISA of Table 20) (antibody) |  |  |  | -8% | 4% | 3% |  |
| mIgG1 isotype control (competition ELISA of Table 20) (antibody) |  |  |  | -4% | 7% | 16% |  |
| mIgG Isotype Control (antibody) | 1 fold | 1 fold | 1 fold |  |  |  |  |
